Data: article PMC3659094

Target: human Tyrosine kinase receptor B (TrkB) (human) (UniProt Q16620)
Sequence of UniProt Q16620 (Q16620 other isoform, or with tags, fused parts or gaps): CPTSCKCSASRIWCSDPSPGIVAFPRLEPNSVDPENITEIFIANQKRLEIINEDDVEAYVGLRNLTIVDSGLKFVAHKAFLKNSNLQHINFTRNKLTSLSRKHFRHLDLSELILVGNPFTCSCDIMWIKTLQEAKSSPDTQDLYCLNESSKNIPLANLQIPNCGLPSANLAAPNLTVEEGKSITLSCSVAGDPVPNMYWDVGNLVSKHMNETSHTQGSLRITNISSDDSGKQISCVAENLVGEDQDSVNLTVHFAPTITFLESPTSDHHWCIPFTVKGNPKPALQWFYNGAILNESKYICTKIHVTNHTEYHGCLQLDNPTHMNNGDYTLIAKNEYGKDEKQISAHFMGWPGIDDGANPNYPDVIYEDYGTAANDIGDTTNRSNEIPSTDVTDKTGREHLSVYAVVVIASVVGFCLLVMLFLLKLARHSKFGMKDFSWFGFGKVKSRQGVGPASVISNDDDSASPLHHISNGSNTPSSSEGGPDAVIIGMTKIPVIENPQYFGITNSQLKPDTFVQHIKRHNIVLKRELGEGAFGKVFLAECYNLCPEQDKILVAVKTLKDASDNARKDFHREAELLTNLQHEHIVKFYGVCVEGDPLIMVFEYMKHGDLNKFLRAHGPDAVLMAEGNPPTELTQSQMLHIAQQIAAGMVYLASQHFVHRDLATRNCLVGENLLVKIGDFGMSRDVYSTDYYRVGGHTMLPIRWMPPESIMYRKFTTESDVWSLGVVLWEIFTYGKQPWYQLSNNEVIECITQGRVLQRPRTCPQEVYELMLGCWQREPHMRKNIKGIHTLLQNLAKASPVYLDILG

brain-derived neurotrophic factor (BDNF) (ligand)
EC50 of recruitment of SHC1 to human TrkB in U2OS cells (Pathhunter): 1 nM | EC50 of transcriptional activation of a CRE-luciferase reporter in HEK293 cells expressing human TrkB: 5.2 nM
